From US20220340660A1 (Merck Sharp & Dohme, published 2022) come the findings set out here.

The target of test [1] is T1, recombinant mouse TIGIT protein (mouse, UniProt P86176 29-148, limits assumed).
T1 construct: also called mTIGIT recombinant protein; mTIGIT
T1 sequence (looked up): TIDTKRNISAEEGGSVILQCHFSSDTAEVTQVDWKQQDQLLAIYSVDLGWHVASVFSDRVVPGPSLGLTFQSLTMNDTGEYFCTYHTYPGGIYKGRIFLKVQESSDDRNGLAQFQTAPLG
In words: ELISA, plate coated with 1 µg/ml recombinant mouse TIGIT protein (FIG. 1B). As to the method: (§1) FIG. 1A and FIG. 1B are graphs showing identification and characterization of anti-mouse TIGIT monoclonal antibody 18G10. FIG. 1A is a line graph showing binding of anti-mouse TIGIT, clone 18G10, was measured by a cell-based ELISA using mouse TIGIT-overexpressing CHO cells (mTIGIT/CHO). 18G10 was serially diluted as indicated. After 30 min. of incubation, unbound 18G10 antibody was washed out, and the bound 18G10 antibodies were detected using an anti-mouse IgG reagent (closed circles). When the 18G10 was bound in the indicated serial dilutions on mTIGIT/CHO, 8 μg/ml recombinant mouse CD155:hIgG1-Fc (rmCD155) was added to the plate in order to verify whether 18G10 blocked the interaction of rmCD155 with mTIGIT/CHO. After 40 minutes of incubation, unbound recombinant CD155 was washed out, and the bound recombinant CD155 was detected by anti-human IgG reagent (open circles). […] Chimeric anti-TIGIT (18G10):mIgG2a, anti-TIGHT (18G10):mIgG1-[D265A], and isotype controls with mIgG2a or mIgG1-[D265A] isotype were loaded to ELISA plates coated with 1 μg/ml of (left panel) recombinant mouse TIGIT protein or (right panel) goat anti-mouse IgG-Fc antibody. Bound antibodies to each plate were detected. Note: mIgG1* indicates mIgG1-[D265A].
On the technique in general: An ELISA detects its analyte on a solid surface through an enzyme-linked reagent.

In test [2] the target is T2, mouse TIGIT on mouse TIGIT-overexpressing CHO cells (mouse, UniProt P86176 29-249).
T2 construct: whole, on cells; also called mTIGIT/CHO; mTIGIT
T2 sequence (looked up): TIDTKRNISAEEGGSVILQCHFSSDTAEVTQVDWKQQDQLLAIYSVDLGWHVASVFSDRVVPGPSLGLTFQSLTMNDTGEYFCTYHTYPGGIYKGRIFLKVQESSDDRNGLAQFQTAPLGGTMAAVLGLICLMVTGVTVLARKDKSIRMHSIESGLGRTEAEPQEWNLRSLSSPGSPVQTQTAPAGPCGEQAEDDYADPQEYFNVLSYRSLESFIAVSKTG
In words: cell-based ELISA on mTIGIT/CHO cells, detected by anti-mouse IgG. As to the method:
as §1

B1: chimeric anti-TIGIT (18G10):mIgG2a (antibody)
heavy: QVQLMESGPGLVQPSQTLSLTCTVSGFPLTSYTVHWVRQPPGKGLEWIGAIWSSGSTDYNSALKSRLNINRDSSKSQVFLKMNSLQTEDTAIYFCTKSGWAFFDYWGQGVMVTVSSAKTTAPSVYPLAPVCGDTTGSSVTLGCLVKGYFPEPVTLTWNSGSLSSGVHTFPAVLQSDLYTLSSSVTVTSSTWPSQSITCNVAHPASSTKVDKKIEPRGPTIKPCPPCKCPAPNLLGGPSVFIFPPKIKDVLMISLSPIVTCVVVDVSEDDPDVQISWFVNNVEVHTAQTQTHREDYNSTLRVVSALPIQHQDWMSGKEFKCKVNNKDLPAPIERTISKPKGSVRAPQVYVLPPPEEEMTKKQVTLTCMVTDFMPEDIYVEWTNNGKTELNYKNTEPVLDSDGSYFMYSKLRVEKKNWVERNSYSCSVVHEGLHNHHTTKSFSRTPGK
light: DIQMTQSPSLLSASVGDRVTLNCIASQNIYKSLAWYQLKLGEAPKLLIYNANSLQAGIPSRFSGSGSGTDFALTISGLQPEDVATYFCQQYSGGYTFGAGTKLELKRADAAPTVSIFPPSSEQLTSGGASVVCFLNNFYPKDINVKWKIDGSERQNGVLNSWTDQDSKDSTYSMSSTLTLTKDEYERHNSYTCEATHKTSTSPIVKSFNRNEC
notes: Rat 18G10 variable domains on an intact mouse IgG2a backbone; also called anti-TIGIT:mIgG2a
B1: the binding result in test [1] was “binds”.

B2: chimeric anti-TIGIT (18G10):mIgG1-[D265A] (antibody)
heavy: QVQLMESGPGLVQPSQTLSLTCTVSGFPLTSYTVHWVRQPPGKGLEWIGAIWSSGSTDYNSALKSRLNINRDSSKSQVFLKMNSLQTEDTAIYFCTKSGWAFFDYWGQGVMVTVSSAKTTPPSVYPLAPGSAAQTNSMVTLGCLVKGYFPEPVTVTWNSGSLSSGVHTFPAVLQSDLYTLSSSVTVPSSTWPSETVTCNVAHPASSTKVDKKIVPRDCGCKPCICTVPEVSSVFIFPPKPKDVLTITLTPKVTCVVVAISKDDPEVQFSWFVDDVEVHTAQTQPREEQFNSTFRSVSELPIMHQDWLNGKEFKCRVNSAAFPAPIEKTISKTKGRPKAPQVYTIPPPKEQMAKDKVSLTCMITDFFPEDITVEWQWNGQPAENYKNTQPIMDTDGSYFVYSKLNVQKSNWEAGNTFTCSVLHEGLHNHHTEKSLSHSPGK
light: B1 light
notes: Rat 18G10 variable domains on a mouse IgG1 backbone with D265A; also called anti-TIGIT:mIgG1*
B2: in test [1], the binding result is “binds”.

B3: anti-mouse TIGIT monoclonal antibody 18G10 (antibody, V domains shown)
VH: QVQLMESGPGLVQPSQTLSLTCTVSGFPLTSYTVHWVRQPPGKGLEWIGAIWSSGSTDYNSALKSRLNINRDSSKSQVFLKMNSLQTEDTAIYFCTKSGWAFFDYWGQGVMVTVSS
VL: DIQMTQSPSLLSASVGDRVTLNCIASQNIYKSLAWYQLKLGEAPKLLIYNANSLQAGIPSRFSGSGSGTDFALTISGLQPEDVATYFCQQYSGGYTFGAGTKLELK
notes: also called anti-mouse TIGIT, clone 18G10; rat anti-mouse TIGIT (mTIGIT) antibody clone 18G10
For the molecule B3, in test [2], the binding result is “binds”.
